Measured values published in PMC2112702 (The Journal of Cell Biology, 1983).
Blank lines part the entries; values can stand above or below the binder they belong to.

Biological target: clathrin (Mr ~180,000 polypeptide) (bovine (calf brain), UniProt P49951 1-1675)
Experiment: co-sedimentation

Chain of clathrin (Mr ~180,000 polypeptide) (P49951 whole entry): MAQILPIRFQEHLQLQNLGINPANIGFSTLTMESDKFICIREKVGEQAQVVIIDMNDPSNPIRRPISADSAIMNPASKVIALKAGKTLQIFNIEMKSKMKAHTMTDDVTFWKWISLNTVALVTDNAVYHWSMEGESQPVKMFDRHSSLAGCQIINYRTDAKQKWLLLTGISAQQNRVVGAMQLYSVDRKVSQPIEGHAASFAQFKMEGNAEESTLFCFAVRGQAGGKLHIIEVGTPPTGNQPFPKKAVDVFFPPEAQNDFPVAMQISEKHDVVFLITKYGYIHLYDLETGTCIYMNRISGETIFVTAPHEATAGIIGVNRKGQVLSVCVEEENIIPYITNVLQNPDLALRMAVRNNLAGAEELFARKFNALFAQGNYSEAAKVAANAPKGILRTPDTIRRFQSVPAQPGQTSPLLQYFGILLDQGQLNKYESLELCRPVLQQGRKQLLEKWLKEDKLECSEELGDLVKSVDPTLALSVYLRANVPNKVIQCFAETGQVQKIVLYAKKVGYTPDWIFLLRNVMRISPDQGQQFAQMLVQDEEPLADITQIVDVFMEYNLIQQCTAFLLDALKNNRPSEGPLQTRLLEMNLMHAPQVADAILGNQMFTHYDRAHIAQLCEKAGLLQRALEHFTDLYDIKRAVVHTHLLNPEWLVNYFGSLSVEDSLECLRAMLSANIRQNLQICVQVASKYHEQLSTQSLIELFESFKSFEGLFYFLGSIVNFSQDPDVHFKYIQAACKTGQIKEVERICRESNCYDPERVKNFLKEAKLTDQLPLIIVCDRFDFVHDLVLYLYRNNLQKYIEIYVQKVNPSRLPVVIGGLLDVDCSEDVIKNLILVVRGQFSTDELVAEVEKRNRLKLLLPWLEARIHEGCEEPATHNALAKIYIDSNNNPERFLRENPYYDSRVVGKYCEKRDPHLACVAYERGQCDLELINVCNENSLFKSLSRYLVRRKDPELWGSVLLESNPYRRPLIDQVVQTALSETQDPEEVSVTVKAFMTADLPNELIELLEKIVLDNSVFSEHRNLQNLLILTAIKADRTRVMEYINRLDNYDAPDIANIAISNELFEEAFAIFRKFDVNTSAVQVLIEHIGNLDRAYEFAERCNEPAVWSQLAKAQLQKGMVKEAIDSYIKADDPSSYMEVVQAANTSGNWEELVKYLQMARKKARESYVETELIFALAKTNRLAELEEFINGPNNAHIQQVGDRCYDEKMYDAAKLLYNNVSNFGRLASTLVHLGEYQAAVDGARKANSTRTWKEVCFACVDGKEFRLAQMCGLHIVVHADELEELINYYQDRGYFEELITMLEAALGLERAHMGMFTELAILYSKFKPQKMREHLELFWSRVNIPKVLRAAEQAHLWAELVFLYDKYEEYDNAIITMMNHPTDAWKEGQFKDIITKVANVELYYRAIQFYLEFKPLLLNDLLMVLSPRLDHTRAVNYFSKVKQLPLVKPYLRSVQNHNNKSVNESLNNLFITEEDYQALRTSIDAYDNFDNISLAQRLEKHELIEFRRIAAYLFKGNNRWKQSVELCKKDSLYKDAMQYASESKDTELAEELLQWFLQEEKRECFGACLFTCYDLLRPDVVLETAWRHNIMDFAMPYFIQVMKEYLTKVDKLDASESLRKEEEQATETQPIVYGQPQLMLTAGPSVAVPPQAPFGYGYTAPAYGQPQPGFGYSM

- stoichiometry N: 1.62 mol per 3.00 mol of 180,000 clathrin (one triskelion)
B1: clathrin light chain, Mr 33,000 (natural protein, bovine (calf brain), UniProt P04975 1-228, looked up)
chain: MADDFGFFSSSESGAPEAAEEDPAAAFLAQQESEIAGIENDEGFGAPAGSQGGLAQPGPASGASEDMGATVNGDVFQEANGPADGYAAIAQADRLTQEPESIRKWREEQRKRLQELDAASKVMEQEWREKAKKDLEEWNQRQSEQVEKNKINNRIADKAFYQQPDADIIGYVASEEAFVKESKEETPGTEWEKVAQLCDFNPKSSKQCKDVSRLRSVLMSLKQTPLSR

- stoichiometry N: 0.83 mol per 3.00 mol of 180,000 clathrin (one triskelion)
B2: clathrin light chain, Mr 36,000 (natural protein, bovine (calf brain), UniProt P04973 1-243, looked up)
chain: MAELDPFGVPAGGPALGNGVAGEEDPAAAFLAQQESEIAGIENDEAFAILDGGAPGSQPHGEPPGIPDAVDGVTNGDYYQESNGPTDSYAAISQVDRLQSEPESIRKWREEQTERLEALDANSRKQEAEWKEKAIKELDEWYARQDEQLQKTKANNRVADEAFYKQPFADVIGYVTNINHPCYSLEQAAEEAFVNDIEESSPGTEWERVARLCDFNPKSSKQAKDVSRMRSVLISLKQAPLVH
